The text below walks through data of patent publication US11674967B2, “Method of identifying potential inhibitors of APO TNFα trimers” (UCB BIOPHARMA SRL, priority 2015, dated 2023).

For orientation: Kd means a measure of binding affinity in units of concentration.

Assay [1] concerns the target T1, TNFα (Homo sapiens, UniProt P01375). The assay can be described thus: SPR on Biacore 4000 against immobilised soluble TNFα. It is filed as binding. The note with it: up to 100 μM. As to the method: In another experiment, BIO8898 was tested against the immobilised soluble form of CD40L and the soluble form of TNFα by SPR on a Biacore 4000 machine.
In general terms: Surface plasmon resonance follows binding to a sensor surface in real time, without labels.

For assay [2], the target named is human TNFα complexed with compound (15) (Homo sapiens, UniProt P01375). The assay can be described thus: Size exclusion chromatography of Fab with human TNFα complexed with compound (15). Format: binding. The note with it: mouse Fab fragments.
Another assay concerns the target T2, Mouse TNFα (Mus musculus, UniProt P06804).
T2 construct: made in house
T2 sequence (P06804 80-235 limits assumed): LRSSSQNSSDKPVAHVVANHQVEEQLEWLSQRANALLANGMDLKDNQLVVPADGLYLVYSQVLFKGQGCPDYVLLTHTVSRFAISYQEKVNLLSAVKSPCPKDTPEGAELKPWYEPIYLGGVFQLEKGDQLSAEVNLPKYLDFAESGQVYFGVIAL
Briefly: BIAcore antibody binding with mouse TNFα +/- compound. As to the method: (§1) Surface plasmon resonance was performed at 25° C. using a BIAcore T200 (GE Healthcare). Anti-Mouse Fc (Jackson 115-006-071) was immobilised on a […] Sensor Chip (GE Healthcare) via amine coupling chemistry to a capture level of 6000 response units. HBS-EP buffer (10 mM HEPES pH 7.4, 0.15 M NaCl, 3 mM EDTA, 0.05% (v/v) surfactant P20—GE Healthcare)+1% DMSO was used as the running buffer.
(§2) The surface was regenerated at a flow-rate of 10 μl/min by a 60 s injection of 40 mM HCl×2 and a 30 s 5 mM NaOH. Double referenced background subtracted binding curves were analysed using the T200 Evaluation software (version 1.0) following standard procedures. Kinetic parameters were determined from the fitting algorithm.

Assay [3] deals with T1, TNFα. Briefly: BIAcore antibody binding with human TNFα +/- compound. Also noted: made in house. The protocol:
as §1, §2

T1 sequence (P01375 77-233 limits assumed): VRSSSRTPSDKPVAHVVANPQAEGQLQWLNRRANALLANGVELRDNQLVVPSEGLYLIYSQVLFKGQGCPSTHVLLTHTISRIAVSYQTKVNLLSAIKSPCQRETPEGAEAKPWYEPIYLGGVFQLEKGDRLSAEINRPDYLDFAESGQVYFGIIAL
Chain of human TNFα complexed with compound (15) (P01375 77-233 limits assumed, one chain of several): as the sequence (P01375 77-233 limits assumed) above

Take `O=C(NCc1cccc(-c2ccccc2)c1)c1cc(-c2cc(C(=O)NC(C(=O)O)C3CCCCC3)nc(C(=O)N3CCCC3CN3CCCC3)c2)cc(C(=O)N2CCCC2CN2CCCC2)n1` (stereo not shown) [BIO8898]: the “binding to TNFα” value on TNFα [1] is “no binding was detected”.

B1: CA185_01979: conformation-selective antibody, light chain SEQ ID NO: 26, heavy chain SEQ ID NO: 27 (antibody)
heavy: EVHLVESGPGLVKPSQSLSLTCSVTGYSITNSYWDWIRKFPGNKMEWMGYINYSGSTGYNPSLKSRISISRDTSNNQFFLQLNSITTEDTATYYCARGTYGYNAYHFDYWGRGVMVTVSSAKTTPPSVYPLAPGSAAQTNSMVTLGCLVKGYFPEPVTVTWNSGSLSSGVHTFPAVLQSDLYTLSSSVTVPSSTWPSETVTCNVAHPASSTKVDKKIVPRDCGCKPCICTVPEVSSVFIFPPKPKDVLTITLTPKVTCVVVDISKDDPEVQFSWFVDDVEVHTAQTQPREEQFNSTFRSVSELPIMHQDWLNGKEFKCRVNSAAFPAPIEKTISKTKGRPKAPQVYTIPPPKEQMAKDKVSLTCMITDFFPEDITVEWQWNGQPAENYKNTQPIMDTDGSYFVYSKLNVQKSNWEAGNTFTCSVLHEGLHNHHTEKSLSHSPGK
light: DIQMTQSPASLSASLEEIVTITCQASQDIGNWLSWYQQKPGKSPHLLIYGTTSLADGVPSRFSGSRSGTQYSLKISGLQVADIGIYVCLQAYSTPFTFGSGTKLEIKRTDAAPTVSIFPPSSEQLTSGGASVVCFLNNFYPKDINVKWKIDGSERQNGVLNSWTDQDSKDSTYSMSSTLTLTKDEYERHNSYTCEATHKTSTSPIVKSFNRNEC
modifications: 1979 HC mIgG1 full; 1979 LC Kappa full
As to B1, the “stoichiometry of Fab binding to trimer-compound complex” value in assay [2] was 1 Fab:1 TNFα trimer. Moreover, the values for the Kd in the assay with Mouse TNFα (Mouse TNFα + compound (15)) and with Mouse TNFα (Mouse TNFα apo) were 0.38 nM and 27 nM, respectively. Further, the ka was determined as 160000 M⁻¹ s⁻¹ in the assay with Mouse TNFα (Mouse TNFα + compound (15)); 190000 M⁻¹ s⁻¹ with Mouse TNFα (Mouse TNFα + compound (39)); 72000 M⁻¹ s⁻¹ in the assay with Mouse TNFα (Mouse TNFα apo); 470000 M⁻¹ s⁻¹ with TNFα [3] (Human TNFα + compound (15)); 570000 M⁻¹ s⁻¹ with TNFα [3] (Human TNFα + compound (39)); 110000 M⁻¹ s⁻¹ in the assay with TNFα [3] (Human TNFα apo). For the same molecule, the kd with Mouse TNFα (Mouse TNFα + compound (15)) was found to be 6.3e-05 s⁻¹; in the assay with Mouse TNFα (Mouse TNFα + compound (39)), 3.5e-05 s⁻¹; with Mouse TNFα (Mouse TNFα apo), 0.002 s⁻¹; in the assay with TNFα [3] (Human TNFα + compound (15)), 1.6e-05 s⁻¹; with TNFα [3] (Human TNFα + compound (39)) it was 3.3e-05 s⁻¹; with TNFα [3] (Human TNFα apo) it was 0.00071 s⁻¹.
